This is an account of results in patent US20060147922A1, “Novel diagnostic and therapeutic methods and reagents therefor” (priority 2002, published 2006).

The target in assay [1] is GST fusion of mouse importin β1 (PTAC97) (mouse) (UniProt P70168). The assay is described as follows: GST-importin β pull-down of IVT 35S-EDD, autoradiography.
Assay [2] has as its target GSTchk2-N (GST fused to chk2 aa 1-225) (human) (UniProt O96017). The assay is described as follows: pre-incubation of GSTchk2-N with the peptide, then pull-down of IVT 35S-EDD (competitor of EDD).

GSTchk2-N (GST fused to chk2 aa 1-225) (human), sequence (O96017 1-225): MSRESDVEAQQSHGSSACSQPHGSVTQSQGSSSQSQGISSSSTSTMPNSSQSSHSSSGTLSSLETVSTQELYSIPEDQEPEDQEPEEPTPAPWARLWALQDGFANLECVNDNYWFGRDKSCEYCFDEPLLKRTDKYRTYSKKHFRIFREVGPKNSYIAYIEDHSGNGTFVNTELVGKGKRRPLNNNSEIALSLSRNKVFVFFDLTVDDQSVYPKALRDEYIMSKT
GST fusion of mouse importin β1 (PTAC97) (mouse), sequence (P70168 whole entry, the tested form may be a part): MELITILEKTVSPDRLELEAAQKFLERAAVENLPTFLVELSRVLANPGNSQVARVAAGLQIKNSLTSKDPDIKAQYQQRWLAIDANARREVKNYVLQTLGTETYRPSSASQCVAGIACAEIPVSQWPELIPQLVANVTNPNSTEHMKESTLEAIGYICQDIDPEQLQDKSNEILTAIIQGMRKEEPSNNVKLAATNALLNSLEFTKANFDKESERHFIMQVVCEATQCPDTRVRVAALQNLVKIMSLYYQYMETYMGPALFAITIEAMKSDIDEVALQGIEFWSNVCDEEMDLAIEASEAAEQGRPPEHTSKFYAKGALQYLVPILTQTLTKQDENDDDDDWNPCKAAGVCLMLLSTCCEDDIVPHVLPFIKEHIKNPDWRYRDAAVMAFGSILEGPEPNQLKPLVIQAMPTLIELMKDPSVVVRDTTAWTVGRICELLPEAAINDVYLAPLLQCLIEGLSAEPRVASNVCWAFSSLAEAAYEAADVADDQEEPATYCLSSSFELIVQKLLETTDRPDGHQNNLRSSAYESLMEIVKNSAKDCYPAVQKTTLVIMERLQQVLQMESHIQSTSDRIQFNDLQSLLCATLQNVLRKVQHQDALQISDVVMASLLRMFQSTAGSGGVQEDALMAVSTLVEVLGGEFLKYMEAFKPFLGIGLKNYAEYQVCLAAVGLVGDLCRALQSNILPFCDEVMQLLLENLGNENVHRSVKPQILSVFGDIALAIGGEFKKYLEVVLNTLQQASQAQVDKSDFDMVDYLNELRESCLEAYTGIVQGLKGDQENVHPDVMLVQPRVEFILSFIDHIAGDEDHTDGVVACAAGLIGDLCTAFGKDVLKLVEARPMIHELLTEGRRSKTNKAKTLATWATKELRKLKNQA

Regarding “EDD protein, full length (aa 1-2799) (from UniProt O95071 1-2799)”, the percent of the available EDD protein pulled down in assay [1] was 5%.

The substance “FHA-binding phosphopeptide RWFDT(P)YLIRR” displayed a peptide concentration that abolished binding of EDD to chk2-N in assay [2] of more than 50 µM.
